Results as given in paper PMC7505961.

Target: 145-Tailless nucleosome (145 bp Widom 601 DNA with tailless histone mutants H4-del 1-20, H3-del 1-37, H2A-del 1-15 and H2B-del 1-31), P06897
Experiment: native gel or EMSA; FAM-labelled nucleosome (0.8 pmol; oligonucleosomes 0.1 pmol) mixed with different amounts of cGAS in 20 mM Tris-HCl pH 7.6, 60 mM NaCl, 5 mM MgCl2, total volume 10 ul; on ice 30 min; 1.5% agarose gel, 0.2x TBE; Kd from percent bound nucleosome against cGAS concentration
Conditions: remark: other sources report otherwise

B1: human cGAS (cGMP-AMP synthase), Q8N884 1-522 (enzyme)
chain: MQPWHGKAMQRASEAGATAPKASARNARGAPMDPTESPAAPEAALPKAGKFGPARKSGSRQKKSAPDTQERPPVRATGARAKKAPQRAQDTQPSDATSAPGAEGLEPPAAREPALSRAGSCRQRGARCSTKPRPPPGPWDVPSPGLPVSAPILVRRDAAPGASKLRAVLEKLKLSRDDISTAAGMVKGVVDHLLLRLKCDSAFRGVGLLNTGSYYEHVKISAPNEFDVMFKLEVPRIQLEEYSNTRAYYFVKFKRNPKENPLSQFLEGEILSASKMLSKFRKIIKEEINDIKDTDVIMKRKRGGSPAVTLLISEKISVDITLALESKSSWPASTQEGLRIQNWLSAKVRKQLRLKPFYLVPKHAKEGNGFQEETWRLSFSHIEKEILNNHGKSKTCCENKEEKCCRKDCLKLMKYLLEQLKERFKDKKHLDKFSSYHVKTAFFHVCTQNPQDSQWDRKDLGLCFDNCVTYFLQCLRTEKLENYFIPEFNLFSSNLIDKRSKEFLTKQIEYERNNEFPVFDEF
B1 gave a Kd of 79 nM.
